B1: KIR3DL2 expressed on cells (receptor, human, UniProt P43630 22-455, looked up)
chain: LMGGQDKPFLSARPSTVVPRGGHVALQCHYRRGFNNFMLYKEDRSHVPIFHGRIFQESFIMGPVTPAHAGTYRCRGSRPHSLTGWSAPSNPLVIMVTGNHRKPSLLAHPGPLLKSGETVILQCWSDVMFEHFFLHREGISEDPSRLVGQIHDGVSKANFSIGPLMPVLAGTYRCYGSVPHSPYQLSAPSDPLDIVITGLYEKPSLSAQPGPTVQAGENVTLSCSSWSSYDIYHLSREGEAHERRLRAVPKVNRTFQADFPLGPATHGGTYRCFGSFRALPCVWSNSSDPLLVSVTGNPSSSWPSPTEPSSKSGICRHLHVLIGTSVVIFLFILLLFFLLYRWCSNKKNAAVMDQEPAGDRTVNRQDSDEQDPQEVTYAQLDHCVFIQRKISRPSQRPKTPLTDTSVYTELPNAEPRSKVVSCPRAPQSGLEGVF
notes: whole, on cells; on CT26 cells (vector with thy1.1 tag)
B2: IGSF8 protein without D1 domain (ligand, human, UniProt Q969P0 150-579, looked up)
chain: PDVLQVSAAPPGPRGRQAPTSPPRMTVHEGQELALGCLARTSTQKHTHLAVSFGRSVPEAPVGRSTLQEVVGIRSDLAVEAGAPYAERLAAGELRLGKEGTDRYRMVVGGAQAGDAGTYHCTAAEWIQDPDGSWAQIAEKRAVLAHVDVQTLSSQLAVTVGPGERRIGPGEPLELLCNVSGALPPAGRHAAYSVGWEMAPAGAPGPGRLVAQLDTEGVGSLGPGYEGRHIAMEKVASRTYRLRLEAARPGDAGTYRCLAKAYVRGSGTRLREAASARSRPLPVHVREEGVVLEAVAWLAGGTVYRGETASLLCNISVRGGPPGLRLAASWWVERPEDGELSSVPAQLVGGVGQDGVAELGVRPGGGPVSVELVGPRSHRLRLHSLGPEDEGVYHCAPSAWVQHADYSWYQAGSARSGPVTVYPYMHALDT
notes: domain: D2-4; also called D24; D2-4

Key:
[1] = molecular target: T1, recombinant human IGSF8 extracellular domain tagged by a human Fc region (IGSF8-hFc) (human, UniProt Q969P0 28-579, biotin label in Examples 17, 18 and 28 (site not given)); experiment: FACS, biotin-labelled IGSF8-hFc on CT26 cells expressing the KIR, MFI normalized to Thy1.1
T1 construct: also called IGSF8-Fc fusion protein; IGSF8-hFc-biotin; not shown: human Fc region
T1 sequence: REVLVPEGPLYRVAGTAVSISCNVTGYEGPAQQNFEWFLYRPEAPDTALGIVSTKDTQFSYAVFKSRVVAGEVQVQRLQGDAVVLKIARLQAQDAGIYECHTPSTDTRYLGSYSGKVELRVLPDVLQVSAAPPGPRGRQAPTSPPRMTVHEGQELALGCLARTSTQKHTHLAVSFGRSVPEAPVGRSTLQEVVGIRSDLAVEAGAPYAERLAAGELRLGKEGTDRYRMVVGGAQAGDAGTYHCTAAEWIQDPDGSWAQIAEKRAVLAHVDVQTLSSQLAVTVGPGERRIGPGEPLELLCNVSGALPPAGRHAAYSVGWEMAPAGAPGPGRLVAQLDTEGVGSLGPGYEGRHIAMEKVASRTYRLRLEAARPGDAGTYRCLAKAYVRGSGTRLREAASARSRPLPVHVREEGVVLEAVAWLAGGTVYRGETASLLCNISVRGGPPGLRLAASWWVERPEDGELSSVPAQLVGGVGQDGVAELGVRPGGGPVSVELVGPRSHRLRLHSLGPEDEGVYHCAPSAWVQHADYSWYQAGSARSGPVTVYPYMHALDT
Protocol: For this experiment, different human KIR receptors (KIR2DL1, KIR2DL2, KIR2DL3, KIR2DL4, KIR2DL5A, KIR2DL5B, KIR3DL1, KIR3DL2, KIR3DL3) were first cloned into a proprietary lentiviral vector containing a thy1.1 tag (FIG. 17A). Then mouse CT26 cells, were transducted by these lentiviral constructs, and IGSF8 binding was tested with biotin-labelled recombinant IGSF8 hFc fusion protein. The mean fluorescence intensity (MFI) of IGSF8 binding to different CT26 cells were normalized by the expression of different KIRs on CT26 cells using an anti-thy1.1 mAb (Biolegend) via flow cytometry.
(§1) KLRC1 also contains a ITIM motif in its intracellular domain, and was known to be a inhibitory receptor of NK or CD8⁺ T cells as part of a heterodimer with KLRD1 on the cell surface. […] Specifically, 100,000 CT26 cells overexpressing the antigens (KIRs or KLRs) were washed with PBS buffer containing 2% FBS, and incubated with 100 μL IGSF8 recombinant proteins or antibodies (5 μg/mL) for 30 minutes on ice. Cells were then washed twice with wash buffer, and incubated with 100 μL of 1:100 anti-human Fc-PE antibody for 15 minutes on ice. Cells were washed twice with wash buffer and analyzed on a FACS analyzer (CytoFlex, Beckman). In these experiments, the mean fluorescence intensity (MFI) of IGSF8 binding to different CT26 cells were normalized by the expression of different KLRs on CT26 cells using an anti-thy1.1 mAb via flow cytometry.

[2] = molecular target: T2, human IGSF8 expressed on the cell surface (human, UniProt Q969P0 28-613); experiment: FACS cell-cell conjugate assay, CFSE-labelled MC38-IGSF8 mixed 1:1 with Far Red-labelled CT26-KIR3DL2
T2 construct: whole, on cells; also called human IGSF8 on CT26 cells; IGSF8 on MC38 cells
T2 sequence (looked up): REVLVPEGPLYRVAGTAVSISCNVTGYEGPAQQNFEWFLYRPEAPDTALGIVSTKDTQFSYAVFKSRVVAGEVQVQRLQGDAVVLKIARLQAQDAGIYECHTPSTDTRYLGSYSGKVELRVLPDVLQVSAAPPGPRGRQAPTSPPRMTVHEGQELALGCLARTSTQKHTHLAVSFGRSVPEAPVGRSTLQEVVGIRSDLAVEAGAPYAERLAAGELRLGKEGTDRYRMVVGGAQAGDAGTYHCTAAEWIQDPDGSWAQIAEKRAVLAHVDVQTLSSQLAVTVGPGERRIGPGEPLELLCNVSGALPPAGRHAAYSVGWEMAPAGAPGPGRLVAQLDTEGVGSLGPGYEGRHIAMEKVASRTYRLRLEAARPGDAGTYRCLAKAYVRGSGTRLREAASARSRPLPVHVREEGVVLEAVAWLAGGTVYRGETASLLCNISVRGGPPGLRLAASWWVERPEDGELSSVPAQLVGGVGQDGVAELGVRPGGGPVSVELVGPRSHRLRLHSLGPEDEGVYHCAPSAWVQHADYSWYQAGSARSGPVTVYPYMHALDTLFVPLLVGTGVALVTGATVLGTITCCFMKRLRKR
Protocol: FIG. 23A is a diagram of two embodiments of an antibody blocking assay. In the left panel, CT26 cells expressing ligand IGSF8 are treated with soluble and biotin labelled receptor (KIR3DL1/2) and anti-IGSF8 mAbs, and subsequently, bound receptor is detected with PE-streptavidin. In the right panel, MC38 cells expressing the IGSF8 ligand are contacted with KLR- or KIR-receptor-expressing CT26 cells, and anti-IGSF8 antibodies capable of blocking MC38-CT26 cell/cell conjugates will reduce the formation of the FACS-detectable conjugate.
A competition assay (FIG. 23A) was then designed to test whether these seven mAbs block IGSF8 binding to the KIR3DL1/2 or the KLRC1&D1 heterodimer receptors. MC38 cells (a cell line derived from C57BL6 murine colon adenocarcinoma cells from NIH) with forced expression of IGSF8 protein on cell surface by lentiviral delivery of a human IGSF8-expression construct were labeled with CFSE (Carboxyfluorescein succinimidyl ester, Thermo). CT26 cells with forced expression of either KIR3DL1/2 or KLRC1&D1 were labeled with CellTrace Far Red (Thermo). The MC38 cells were then mixed at a 1:1 ratio with the CT26 cells for about an hour at room temperature. The formation of MC38 and CT26 cell/cell conjugates was assessed by flow cytometry.

[3] = molecular target: B1; experiment: FACS, hFc-tagged proteins on CT26 cells expressing the receptor, MFI normalized to Thy1.1
Protocol: as §1

| Binder | binding result [1] | binding result [2] | binding result [3] |
| --- | --- | --- | --- |
| B1 | binds | binds | – |
| B2 | – | – | no binding |

— US20230303695A1 (SHANGHAI XBH BIOTECHNOLOGY, published 2023)
